From patent US20120316071A1 (published 2012)
Where a chain is given by its changes, count along the chain named. Numbers in names are those of the source. Blank lines part the entries; values can stand above or below the binder they belong to.

Legend:
[1] = target: T1, Recombinant Human DLL4 (delta-like protein 4) (human, UniProt Q9NR61 27-524); assay: ELISA on coated DLL4, Fab at 25 nM (2-fold serial dilution)
T1 construct: also called rHuman DLL4; Delta-like 4

[2] = target: T1, Recombinant Human DLL4 (delta-like …); assay: ELISA on coated DLL4, Fab at 50 nM (2-fold serial dilution)
[3] = target: T1, Recombinant Human DLL4 (delta-like …); assay: ELISA on coated DLL4, Fab at 100 nM (2-fold serial dilution)
[4] = target: T1, Recombinant Human DLL4 (delta-like …); assay: ELISA on coated DLL4, Fab at 12.5 nM (2-fold serial dilution)
[5] = target: T1, Recombinant Human DLL4 (delta-like …); assay: ELISA on coated DLL4, Fab at 6.25 nM (2-fold serial dilution)
[6] = target: T1, Recombinant Human DLL4 (delta-like …); assay: ELISA on coated DLL4, Fab at 3.125 nM (2-fold serial dilution)
[7] = target: T2, Recombinant Human DLL4 (delta-like protein 4) (human, UniProt Q9NR61 27-524); assay: ECL (Meso Scale Discovery) binding assay on immobilised recombinant human DLL4; Fab concentration not given
T2 construct: Bought recombinant protein (R&D Systems Cat#1506-D4/CF); also called rHuman DLL4; Delta-like 4

B2: Fab VH5-51_IGHD5-18*01>3_IGHJ4*01 G100K/G104T (H:KT) & V3-4_IGLJ1*01 T78L (Fab, V domains shown)
VH: EVQLVQSGAEVKKPGESLKISCKGSGYSFTSYWIGWVRQMPGKGLEWMGIIYPGDSDTRYSPSFQGQVTISADKSISTAYLQWSSLKASDTAMYYCARRKYSYTYDYFDYWGQGTLVTVSS
VL: QTVVTQEPSFSVSPGGTVTLTCGLSSGSVSTSYYPSWYQQTPGQAPRTLIYSTNTRSSGVPDRFSGSILGNKAALTILGAQADDESDYYCVLYMGSGISYVFGTGTKVTVL
notes: Fab with CH1 and lambda CL from the expression plasmids; also called G100K/G104T & T78L
ECL signal [7]: 9550

B3: Fab VH5-51_IGHD5-18*01>3_IGHJ4*01 G100K/G104T (H:KT) & V3-4_IGLJ1*01 T78E (Fab, V domains shown)
VH: B2 VH
VL: B2 VL with L78E
notes: Fab with CH1 and lambda CL from the expression plasmids; also called G100K/G104T & T78E
ECL signal [7]: 10600

B4: Fab VH5-51_IGHD5-18*01>3_IGHJ4*01 G100K/G104T (H:KT) & V3-4_IGLJ1*01 T78S (Fab, V domains shown)
VH: B2 VH
VL: B2 VL with L78S
notes: Fab with CH1 and lambda CL from the expression plasmids; also called G100K/G104T & T78S
ECL signal [7]: 7550

B6: Fab VH5-51_IGHD5-18*01>3_IGHJ4*01 G100K/G104T (H:KT) & V3-4_IGLJ1*01 S25A, A116T (Fab, V domains shown)
VH: B2 VH
VL: QTVVTQEPSFSVSPGGTVTLTCGLASGSVSTSYYPSWYQQTPGQAPRTLIYSTNTRSSGVPDRFSGSILGNKAALTITGAQADDESDYYCVLYMGSGISYVFGTGTKVTVLG
notes: also called G100K/G104T & S25A/A116T; named S52A/A116T in the running text
ECL signal [7]: 12200

B8: Fab VH5-51_IGHD5-18*01>3_IGHJ4*01 G100K/G104T T58A & V3-4_IGLJ1*01 (Fab, V domains shown)
VH: B2 VH with T58A
VL: B2 VL with L78T
notes: Fab; also called H:KT T58A & L:parent
ELISA signal [1]: 0.22
ELISA signal [2]: 0.209
ELISA signal [3]: 0.253
ELISA signal [4]: 0.23
ELISA signal [5]: 0.249
ELISA signal [6]: 0.244

Second part, the binder after the results:

ELISA signal [1]: 0.365
ELISA signal [2]: 0.456
ELISA signal [3]: 0.529
ELISA signal [4]: 0.309
ELISA signal [5]: 0.303
ELISA signal [6]: 0.246
B1: Fab VH5-51_IGHD5-18*01>3_IGHJ4*01 G100K/G104T S28R & V3-4_IGLJ1*01 (Fab, V domains shown)
VH: B2 VH with S28R
VL: B2 VL with L78T
notes: Fab; also called H:KT S28R & L:parent; H:KT S28R & L:wt

ECL signal [7]: 9830
B5: Fab VH5-51_IGHD5-18*01>3_IGHJ4*01 G100K/G104T (H:KT) & V3-4_IGLJ1*01 T78V (Fab, V domains shown)
VH: B2 VH
VL: B2 VL with L78V
notes: Fab with CH1 and lambda CL from the expression plasmids; also called G100K/G104T & T78V

ELISA signal [1]: 0.218
ELISA signal [2]: 0.23
ELISA signal [3]: 0.219
ELISA signal [4]: 0.223
ELISA signal [5]: 0.224
ELISA signal [6]: 0.252
B7: Fab VH5-51_IGHD5-18*01>3_IGHJ4*01 G100K/G104T T58D & V3-4_IGLJ1*01 (Fab, V domains shown)
VH: B2 VH with T58D
VL: B2 VL with L78T
notes: Fab; also called H:KT T58D & L:parent

ECL signal [7]: 9620
B9: Fab VH5-51_IGHD5-18*01>3_IGHJ4*01 G100K/G104T (H:KT) & V3-4_IGLJ1*01 T78K (Fab, V domains shown)
VH: B2 VH
VL: B2 VL with L78K
notes: Fab with CH1 and lambda CL from the expression plasmids; also called G100K/G104T & T78K
